# From patent publication US20250296996A1 (BROADWING BIO, published 2025)
# Residue numbers refer to the chain shown, from its start.
# T1: muANGPTL7-his (R&D Systems) (mouse, UniProt Q8R1Q3 22-337, limits assumed)
# T1 construct: Bought protein; also called mouse ANGPTL7 protein
# T1 sequence (looked up): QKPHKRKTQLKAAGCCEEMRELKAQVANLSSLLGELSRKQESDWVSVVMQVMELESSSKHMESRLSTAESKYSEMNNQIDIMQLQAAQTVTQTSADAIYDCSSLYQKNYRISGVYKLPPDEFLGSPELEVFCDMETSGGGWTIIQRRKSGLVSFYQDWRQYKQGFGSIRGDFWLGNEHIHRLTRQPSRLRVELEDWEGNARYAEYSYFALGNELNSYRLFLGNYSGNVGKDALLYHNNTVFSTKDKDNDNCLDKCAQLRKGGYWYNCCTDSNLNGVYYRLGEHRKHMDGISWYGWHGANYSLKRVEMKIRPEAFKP
# T2: P66 (rabbit ANGPTL7-his) (rabbit, UniProt G1T4P1 27-344)
# T2 construct: mature; also called rabbit ANGPTL7 protein
# T2 sequence: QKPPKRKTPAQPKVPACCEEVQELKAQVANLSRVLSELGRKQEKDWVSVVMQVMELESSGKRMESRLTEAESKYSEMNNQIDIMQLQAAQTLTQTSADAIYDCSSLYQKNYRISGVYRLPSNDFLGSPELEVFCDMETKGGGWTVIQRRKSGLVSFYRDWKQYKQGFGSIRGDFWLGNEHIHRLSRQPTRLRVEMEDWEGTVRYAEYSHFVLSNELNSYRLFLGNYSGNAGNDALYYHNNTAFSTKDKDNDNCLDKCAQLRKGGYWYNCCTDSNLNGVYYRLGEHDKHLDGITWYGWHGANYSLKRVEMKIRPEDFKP
# T3: P60 (huANGPTL7-Fibrinogen-his) (human, UniProt O43827 129-343)
# T3 construct: also called human ANGPTL7 fibrinogen domain; not shown: C-terminal short linker and His tag
# T3 sequence: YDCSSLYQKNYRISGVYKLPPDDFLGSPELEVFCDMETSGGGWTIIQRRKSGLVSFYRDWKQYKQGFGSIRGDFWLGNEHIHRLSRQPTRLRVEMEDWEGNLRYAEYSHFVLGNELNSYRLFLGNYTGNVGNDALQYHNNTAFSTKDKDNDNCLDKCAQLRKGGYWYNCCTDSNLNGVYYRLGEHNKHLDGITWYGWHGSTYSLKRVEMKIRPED
# T4: Pext-01 (huANGTPL7-FLAG multimer) (human, UniProt O43827 27-346)
# T4 construct: also called PExt-1; human wild type ANGPTL7 multimer; not shown: FLAG tag
# T4 sequence: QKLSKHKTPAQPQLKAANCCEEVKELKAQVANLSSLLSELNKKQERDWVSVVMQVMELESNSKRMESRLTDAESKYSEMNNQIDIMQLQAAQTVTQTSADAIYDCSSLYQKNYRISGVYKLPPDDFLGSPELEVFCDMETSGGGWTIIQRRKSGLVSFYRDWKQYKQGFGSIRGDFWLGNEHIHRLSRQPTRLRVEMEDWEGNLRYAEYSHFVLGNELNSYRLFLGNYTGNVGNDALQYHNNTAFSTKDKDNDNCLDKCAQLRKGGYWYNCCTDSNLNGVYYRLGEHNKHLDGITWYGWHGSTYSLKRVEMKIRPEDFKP
# T5: P62 (huANGPTL7-his) (human, UniProt O43827 27-346)
# T5 construct: not shown: C-terminal short linker and His tag
# T5 chain: T4 sequence with L33P, L58P
# B1: ATX-P-429 (antibody, human IgG1, kappa, N297A, V domains shown)
# VH: QVQLVQSGAEVKKPGASVKVSCKASGYTFSSYGISWVRQAPGQGLEWMGWISAYNGNTNYAQNLRGRVAMTTDTSTTTAYMELRSLRSDDTAVYYCARVSLVWFGELPRGFDYWGQGTLVTVSS
# VL: not shown
# notes: Full chains (VH + hIgG1-Agly-Fc)
# B2: ATX-P-447 (antibody, human IgG1, kappa, N297A, V domains shown)
# VH: EVQLVESGGGLVQPGGSLRLSCAASGFTISDYDMHWVRQTTGKGLEWVSGIDPDGDTYYPGSLKGRFTISRENAKNSLYLQMNSLRAGDTAVYYCTRGEDSSSSEDAFDIWGQGTMVTVSS
# VL: not shown
# notes: as for B1
# B3: ATX-P-444 (antibody, human IgG1, kappa, N297A, V domains shown)
# VH: B2 VH with I29L, D31V, T40V, T41S, L63V, A87V, T96L, D100E, S102N, A107G
# VL: not shown
# notes: as for B1
# B4: ATX-P-446 (antibody, human IgG1, kappa, N297A, V domains shown)
# VH: B2 VH with I29L, D31S, T40V, T41I, L63V, N73D, S101N
# VL: not shown
# notes: as for B1
# B5: ATX-P-433 (antibody, IgG1, V domains shown)
# VH: EVQLVESGGGLVQPGRSLRLSCAASGFTFDDFAMHWVRQGPGKGLEWVSGIGWNSGSIGYADSVKGRFTISRDNAKNSLYLQMNSLRAEDTALYYCAKAPDYGDYYFDYWGQGTLVTVSS
# VL: DIQMTQSPSSLSASVGDRVTITCRASQSISIYLNWYQQKPGTAPKLLIYAASSLQSGVPSRFSGSGSGTDFTLTISSLQPEDFAAYYCQQSYTTPLTFGGGTKVEIKR
# notes: as for B1
# B6: ATX-P-438 (antibody, human IgG1, kappa, N297A, V domains shown)
# VH: QVQLVESGGGVVQPGRSLRLSCAASGFTFSSYGMHWVRQAPGKGLEWVAIISYDGNNKYYADSVKGRFTISRDNSKNTLYLQMNSLRDEDTAVYYCAKERGYSSSSGYYYYYMDVWGKGTTVTVSS
# VL: EIVLTQSPGTLSLSPGERATLSCRASQSVSRSYLAWYQQKPGQAPRLLIIGASTRATGIPDRFSGSGSGTDFTLTISRLEPEDFAVYYCQQGQVIPPTFGQGTKVEIKR
# notes: as for B1
# B7: ATX-P-435 (antibody, human IgG1, kappa, N297A, V domains shown)
# VH: QLQLQESGPGLVKPSETLSLTCTVSGGSISSSSSYWGWIRQPPGKGLEWIGSIYYSGSTYSNPSLKSRVTISVDTSKNQFSLKLSSVTAADTAVYYCARQYISGTEYFQYWGQGTLVTVSS
# VL: EIVLTQSPATLSLSPGERATLSCRASQSVSNYLAWYQQKPGQAPRLLIYDASNRATGIPARFSGSGSGTDFTLTISSLEPEDFAVYYCQQRSNWPSFGQGTRLEIKR
# notes: as for B1
# Tests used:
# [1] = target: T1, muANGPTL7-his (R&D Systems); assay: BLI Octet HTX; IgG on AHC sensor; muANGPTL7-his at 200 nM
# Method: (§1) Experiments were also conducted to determine the reactivity and dissociation constants (KD) of anti-ANGPTL7 antibodies with the mouse ANGPTL7 protein. Binding experiments were performed on Octet HTX (ForteBio) in 1×PBS, pH 7.4, 0.1 mg/mi BSA, 0.05% Sodium Azide, and 0.02% Tween 20. Antibodies at a concentration of 50 nM were loaded on pre-hydrated AHC biosensors for 5 mA. The loaded sensors were dipped into monovalent muANGPTL7-his (R&D Systems) at a concentration of 200 nM for 5 min of association, followed by 10 min of dissociation. […] Responses (nm) at the end of association were also determined (Table 5).
# P66 (rabbit ANGPTL7-his) [2] = target: T2, P66 (rabbit ANGPTL7-his); assay: BLI Octet HTX; IgG on AHC sensor; P66 at 200 nM
# Method: as §1, with “([…])” for “(KD)”, “rabbit” for “mouse”, “Rx PBS,” for “1×PBS,”, “min.” for “mA.”, “P66 (rabbit ANGPTL7-his)” for “muANGPTL7-his (R&D Systems)”, “6).” for “5).”
# [3] = target: T3, P60 (huANGPTL7-Fibrinogen-his); assay: BLI Octet HTX; IgG on AHC sensor; P60 at 200 nM; 1:1 fit
# Method: (§2) ANGPTL7 Antibody Kinetics. Experiments were conducted to determine the reactivity and dissociation constants (KD) of anti-ANGPTL7 antibodies with the human fibrinogen domain of the ANGPTL7 protein. Binding experiments were performed on Octet HTX (ForteBio) in 1×PBS, pH 7.4, 0.1 mg/ml BSA, 0.05% Sodium Azide, and 0.02 Tween 20. Antibodies at a concentration of 50 nM were loaded on pre-hydrated AHC biosensors for 5 min. The loaded sensors were dipped into monovalent P60 (huANGPTL7-Fibrinogen-his) at a concentration of 200 nM for 5 min association, followed by 10 min dissociation. […] Responses (nm) at the end of association were also determined (Table 2).
# [4] = target: T1, muANGPTL7-his (R&D Systems); assay: BLI Octet HTX; IgG on AHC sensor; muANGPTL7-his at 200 nM; 1:1 fit
# Method: as §1
# [5] = target: T4, Pext-01 (huANGTPL7-FLAG multimer); assay: BLI Octet HTX; IgG on AHC sensor; Pext-01 at 100 nM; 1:1 fit; apparent KD
# Method: Experiments were also conducted to determine the reactivity and dissociation constants (KD) of anti-ANGPTL7 antibodies with the human ANGPTL7 multimer protein. Binding experiments were performed on Octet HTX (ForteBio) in 1×PBS, pH 7.4, 0.1 mg/ml BSA, 0.05% Sodium Azide, and 0.02% Tween 20. Antibodies at a concentration of 50 nM were loaded on pre-hydrated AHC biosensors for 5 mi. The loaded sensors were dipped into Pext-01 (huANGTPL7-FLAG) at a concentration of 100 nM for 5 min of association, followed by 10 min of dissociation. […] Responses (nm) at the end of association were also determined (Table 7).
# P66 (rabbit ANGPTL7-his) [6] = target: T2, P66 (rabbit ANGPTL7-his); assay: BLI Octet HTX; IgG on AHC sensor; P66 at 200 nM; 1:1 fit
# Method: as §1, with “([…])” for “(KD)”, “rabbit” for “mouse”, “Rx PBS,” for “1×PBS,”, “min.” for “mA.”, “P66 (rabbit ANGPTL7-his)” for “muANGPTL7-his (R&D Systems)”, “6).” for “5).”
# [7] = target: T3, P60 (huANGPTL7-Fibrinogen-his); assay: BLI Octet HTX; IgG on AHC sensor; P60 at 200 nM
# Method: as §2
# P62 (huANGPTL7-his) = target: T5, P62 (huANGPTL7-his); assay: BLI Octet HTX; IgG on AHC sensor; P62 0.343-250 nM; global 1:1 fit
# Method: Experiments were also conducted to determine the reactivity and dissociation constants (KD) of anti-ANGPTL7 antibodies with the human ANGPTL7-his protein. Binding experiments were performed on Octet HTX (ForteBio) in 1×PBS, pH 7.4, 0.1 mg/mi BSA, 0.05% Sodium Azide, and 0.02% Tween 20. To measure monovalent binding kinetics, antibodies at a concentration of 50 nM were loaded on pre-hydrated AHC biosensors for 5 min. The loaded sensors were dipped into monovalent P62 (huANGPTL7-his) at a range of concentration from 0.343-250 nM (a serial 3-fold dilution) for 5 min association, followed by 10 min dissociation.
Binder,binding result [1],binding result (P66 (rabbit ANGPTL7-his) [2]),Kd [3] [nM],Response [3] [nm],Response [4] [nm],Response [5] [nm],Response (P66 (rabbit ANGPTL7-his) [6]) [nm],binding result [7],binding result (P62 (huANGPTL7-his)),Kd (P66 (rabbit ANGPTL7-his) [6]) [nM],koff [3] [s⁻¹],kon [3] [M⁻¹ s⁻¹],Kd (P62 (huANGPTL7-his)) [nM],koff (P62 (huANGPTL7-his)) [s⁻¹],kon (P62 (huANGPTL7-his)) [M⁻¹ s⁻¹],koff (P66 (rabbit ANGPTL7-his) [6]) [s⁻¹],kon (P66 (rabbit ANGPTL7-his) [6]) [M⁻¹ s⁻¹],Kd [5] [nM]
B1,no binding (tested: 200 nM),no binding (tested: 200 nM),75.3,0.52,0,0.58,0.04,–,–,–,–,–,–,–,–,–,–,–
B2,no binding (tested: 200 nM),–,–,0.08,0.12,0.91,0.65,no binding (tested: 200 nM),binds,3.33,–,–,–,–,–,–,–,–
B3,no binding (tested: 200 nM),–,–,0.14,0.01,0.7,–,no binding (tested: 200 nM),–,–,–,–,–,–,–,–,–,–
B4,no binding (tested: 200 nM),–,–,0.09,0.05,0.75,0.41,no binding (tested: 200 nM),–,3.19,–,–,–,–,–,–,–,–
B5,–,–,10.9,0.66,–,0.72,0.9,–,–,7.02,0.00243,223000,1.3,0.00056,431000,0.000727,104000,–
B6,no binding (tested: 200 nM),–,–,0.08,0.01,0.6,0.42,no binding (tested: 200 nM),–,7.16,–,–,–,–,–,–,–,65.3
B7,no binding (tested: 200 nM),no binding (tested: 200 nM),77,0.45,0.01,0.45,0.01,–,–,–,–,–,–,–,–,–,–,–
